Measurements as given in US20240016901A1, “COMPOSITIONS AND METHODS FOR PREVENTING AND TREATING SARS-COV-2 INFECTION” (priority 2020, published 2024).

Assays:
SARS-CoV-2 [1] = assay type: cell-based, SARS-CoV-2 WA1; conditions: Huh-7 cells, MOI 0.2, 48 hrs p.i., FIG. 6C
[2] = system: IFNβ, ISG15, MX1, Viperin and IFITM3; assay: qPCR of IFNβ and interferon-stimulated gene mRNA in Huh-7 cells; assay type: cell-based, human; conditions: lactoferrin-treated Huh-7 cells, FIG. 6D
SARS-CoV-2 [3] = assay type: cell-based, SARS-CoV-2 WA1; conditions: iAECs, pretreatment 1.15 μM, MOI 10
SARS-CoV-2 [4] = assay: microbe, parasite or virus in culture; assay type: cell-based; conditions: Huh-7 cells; for anti-SARS-CoV-2 activity, percentage of infected Huh-7 cells: protein at 2.3 μM, FIG. 6E

Molecule	viral replication (viral genome copies) (SARS-CoV-2 [1])	mRNA levels of IFNβ and interferon-stimulated genes ISG15, MX1, Viperin and IFITM3 [2]	reduction in the proportion of SARS-CoV-2 infected cells (SARS-CoV-2 [3])	antiviral activity against SARS-CoV-2 (in words) (SARS-CoV-2 [4])	antiviral activity when added after infection (SARS-CoV-2 [4]; 2.3 μM added 1 or 24 hrs p.i., MOI 1, 5 and 10, FIG. 6B)	EC50 (SARS-CoV-2 [4]; MOI 0.2, 10-point two-fold dilution dose response in triplicate) [µM]	potentiation of efficacy in combination with remdesivir (SARS-CoV-2 [4]; MOI 0.2, FIG. 6G, FIG. 7A)	potentiation of efficacy in combination with hydroxychloroquine (SARS-CoV-2 [4]; MOI 10, FIG. 6H, FIG. 7B)	IC50 (SARS-CoV-2 [4]; read-out: IC50 against SARS-CoV-2 infection) [µM]	anti-SARS-CoV-2 activity, percentage of infected Huh-7 cells (SARS-CoV-2 [4])
Lacto ferrin: a protein found in milk and other secretory fluids; diet supplement (protein, UniProt P24627 20-708, looked up) Lactotransferrin: APRKNVRWCTISQPEWFKCRRWQWRMKKLGAPSITCVRRAFALECIRAIAEKKADAVTLDGGMVFEAGRDPYKLRPVAAEIYGTKESPQTHYYAVAVVKKGSNFQLDQLQGRKSCHTGLGRSAGWIIPMGILRPYLSWTESLEPLQGAVAKFFSASCVPCIDRQAYPNLCQLCKGEGENQCACSSREPYFGYSGAFKCLQDGAGDVAFVKETTVFENLPEKADRDQYELLCLNNSRAPVDAFKECHLAQVPSHAVVARSVDGKEDLIWKLLSKAQEKFGKNKSRSFQLFGSPPGQRDLLFKDSALGFLRIPSKVDSALYLGSRYLTTLKNLRETAEEVKARYTRVVWCAVGPEEQKKCQQWSQQSGQNVTCATASTTDDCIVLVLKGEADALNLDGGYIYTAGKCGLVPVLAENRKSSKHSSLDCVLRPTEGYLAVAVVKKANEGLTWNSLKDKKSCHTAVDRTAGWNIPMGLIVNQTGSCAFDEFFSQSCAPGADPKSRLCALCAGDDQGLDKCVPNSKEKYYGYTGAFRCLAEDVGDVAFVKNDTVWENTNGESTADWAKNLNREDFRLLCLDGTRKPVTEAQSCHLAVAPNHAVVSRSDRAAHVKQVLLHQQALFGKNGKNCPDKFCLFKSETKNLLFNDNTECLAKLGGRPTYEEYLGTEYVTAIANLKKCSTSPLLEACAFLTR	dose-dependent reduction of viral replication	elevated	two-fold reduction	dose-dependent (3 nM-2.3 μM) and MOI-dependent (0.2-10) antiviral activity	retains antiviral activity	0.308	potentiates the efficacy	potentiates the efficacy	0.308	–
Hololactoferrin: Hololactoferrin (Sigma Aldrich, L4765) (protein, UniProt P02788 20-710, looked up, iron-saturated holo form) Lactotransferrin: GRRRSVQWCAVSQPEATKCFQWQRNMRKVRGPPVSCIKRDSPIQCIQAIAENRADAVTLDGGFIYEAGLAPYKLRPVAAEVYGTERQPRTHYYAVAVVKKGGSFQLNELQGLKSCHTGLRRTAGWNVPIGTLRPFLNWTGPPEPIEAAVARFFSASCVPGADKGQFPNLCRLCAGTGENKCAFSSQEPYFSYSGAFKCLRDGAGDVAFIRESTVFEDLSDEAERDEYELLCPDNTRKPVDKFKDCHLARVPSHAVVARSVNGKEDAIWNLLRQAQEKFGKDKSPKFQLFGSPSGQKDLLFKDSAIGFSRVPPRIDSGLYLGSGYFTAIQNLRKSEEEVAARRARVVWCAVGEQELRKCNQWSGLSEGSVTCSSASTTEDCIALVLKGEADAMSLDGGYVYTAGKCGLVPVLAENYKSQQSSDPDPNCVDRPVEGYLAVAVVRRSDTSLTWNSVKGKKSCHTAVDRTAGWNIPMGLLFNQTGSCKFDEYFSQSCAPGSDPRSNLCALCIGDEQGENKCVPNSNERYYGYTGAFRCLAENAGDVAFVKDVTVLQNTDGNNNEAWAKDLKLADFALLCLDGKRKPVTEARSCHLAMAPNHAVVSRMDKVERLKQVLLHQQAKFGRNGSDCPDKFCLFQSETKNLLFNDNTECLARLHGKTTYEKYLGPQYVAGITNLKKCSTSPLLEACEFLRK	–	–	–	–	–	–	–	–	–	robust antiviral effect
apolactoferrin: apolactoferrin (Jarrow Formulas, 121011); component of dietary supplements (protein, UniProt P24627 20-708, looked up, iron-free apo form, apolactoferrin (Jarrow Formulas, 121011); component of dietary supplements) Lactotransferrin: APRKNVRWCTISQPEWFKCRRWQWRMKKLGAPSITCVRRAFALECIRAIAEKKADAVTLDGGMVFEAGRDPYKLRPVAAEIYGTKESPQTHYYAVAVVKKGSNFQLDQLQGRKSCHTGLGRSAGWIIPMGILRPYLSWTESLEPLQGAVAKFFSASCVPCIDRQAYPNLCQLCKGEGENQCACSSREPYFGYSGAFKCLQDGAGDVAFVKETTVFENLPEKADRDQYELLCLNNSRAPVDAFKECHLAQVPSHAVVARSVDGKEDLIWKLLSKAQEKFGKNKSRSFQLFGSPPGQRDLLFKDSALGFLRIPSKVDSALYLGSRYLTTLKNLRETAEEVKARYTRVVWCAVGPEEQKKCQQWSQQSGQNVTCATASTTDDCIVLVLKGEADALNLDGGYIYTAGKCGLVPVLAENRKSSKHSSLDCVLRPTEGYLAVAVVKKANEGLTWNSLKDKKSCHTAVDRTAGWNIPMGLIVNQTGSCAFDEFFSQSCAPGADPKSRLCALCAGDDQGLDKCVPNSKEKYYGYTGAFRCLAEDVGDVAFVKNDTVWENTNGESTADWAKNLNREDFRLLCLDGTRKPVTEAQSCHLAVAPNHAVVSRSDRAAHVKQVLLHQQALFGKNGKNCPDKFCLFKSETKNLLFNDNTECLAKLGGRPTYEEYLGTEYVTAIANLKKCSTSPLLEACAFLTR	–	–	–	–	–	–	–	–	–	robust antiviral effect
